Test results reported in publication PMC6324938 (Developmental cell, 2018).

T1: Gdi1 (GDP dissociation inhibitor) (UniProt P39958 1-451)
T1 sequence (looked up): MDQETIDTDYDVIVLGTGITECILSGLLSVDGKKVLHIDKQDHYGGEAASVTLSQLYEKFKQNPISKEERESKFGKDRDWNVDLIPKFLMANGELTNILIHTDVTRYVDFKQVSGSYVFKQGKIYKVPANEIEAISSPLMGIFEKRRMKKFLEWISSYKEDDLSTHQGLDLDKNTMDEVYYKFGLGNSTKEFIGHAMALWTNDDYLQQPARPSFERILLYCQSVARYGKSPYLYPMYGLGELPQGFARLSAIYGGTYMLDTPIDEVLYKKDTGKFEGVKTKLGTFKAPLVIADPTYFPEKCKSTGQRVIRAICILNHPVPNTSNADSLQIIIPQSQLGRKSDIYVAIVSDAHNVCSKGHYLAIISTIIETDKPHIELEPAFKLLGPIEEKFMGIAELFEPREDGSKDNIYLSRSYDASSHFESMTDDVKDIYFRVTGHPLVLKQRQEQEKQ


Molecular target: T1, Gdi1 (GDP dissociation inhibitor)
Experiment: SEC

binding result | Binder
binds | prenylated Ypt1 (mantGDP-labeled, of the Rab/GDI substrate) (natural protein, prenylated (geranylgeranyl) at the C-terminus; loaded with mantGDP) not shown
binds | prenylated Ypt31 (mantGDP-labeled, of the Rab/GDI substrate) (natural protein, S. cerevisiae, UniProt P38555 1-223, looked up, prenylated (geranylgeranyl) at the C-terminus; loaded with mantGDP) MSSEDYGYDYDLLFKIVLIGDSGVGKSNLLSRFTKNEFNMDSKSTIGVEFATRTLEIDGKRIKAQIWDTAGQERYRAITSAYYRGAVGALIVYDISKSSSYENCNHWLSELRENADDNVAVGLIGNKSDLAHLRAVPTEESKTFAQENQLLFTETSALNSENVDKAFEELINTIYQKVSKHQMDLGDSSANGNANGASAPNGPTISLTPTPNENKKANGNNCC
